Assay results taken from publication PMC2120984.
Like-named read-outs stand apart in the source and are kept apart here.

Experiments:
[1] = molecular target: alpha v integrins of OV10 cells (human (endogenous in OV10)); assay: binding of protein-coated beads to adherent cells
[2] = molecular target: alpha v integrins of OV10 cells (human (endogenous in OV10)); assay: binding of protein-coated beads to adherent cells; remark: listed apart in the source

Substance: Vitronectin (from UniProt P04004) (ligand)
- attachment index (beads bound per 100 cells) (beads bound per 100 cells) [1]: 181
- attachment index (beads bound per 100 cells) (beads bound per 100 cells) [2]: 373
